Laboratory results taken from paper PMC7382286, “Extensive sequence and structural evolution of Arginase 2 inhibitory antibodies enabled by an unbiased approach to affinity maturation” (Proceedings of the National Academy of Sciences of the …, 2020).
Where a chain is given by its changes, count along the chain named.

B1: Fab C0021177 (Fab, V domains shown)
VH: EVQLLESGGGLVQPGGSLRLSCAASGFTFRYEVAAWVRQAPGKGLEWVSAISGPAPKGYYADSVKGRFTISRDNSKNTLYLQMNSLRAEDTAVYYCARLRADLGLYMDLWGRGTLVTVSS
VL: QSELTQPPTASAAPGQKVTISCSGSSSNIGNHYVSWYQQLPGTAPKLLIYDTTVLSSGIPDRFSGSKSGTSATLGITGLQTGDEADYYCGTWDELTSNLVFGGGTKLTVL
notes: VH of C0021177; VL of C0021177; Pool-maturation lead
B2: recombinant human Arginase 2 (enzyme)
chain: VHSVAVIGAPFSQGQKRKGVEHGPAAIREAGLMKRLSSLGCHLKDFGDLSFTPVPKDDLYNNLIVNPRSVGLANQELAEVVSRAVSDGYSCVTLGGDHSLAIGTISGHARHCPDLCVVWVDAHADINTPLTTSSGNLHGQPVSFLLRELQDKVPQLPGFSWIKPCISSASIVYIGLRDVDPPEHFILKNYDIQYFSMRDIDRLGIQKVMERTFDLLIGKRQRPIHLSFDIDAFDPTLAPATGTPVVGGLTYREGMYIAEEIHNTGLLSALDLVEVNPQLATSEEEAKTTANLAVDVIASSFGQTREGGHIVYDQLPTPSSPDESENQARVRI
notes: Arginase 2 (ARG2), human, recombinant; also called ARG2; trimeric ARG2; source: recombinant
B3: Fab C0020187 (Fab, V domains shown)
VH: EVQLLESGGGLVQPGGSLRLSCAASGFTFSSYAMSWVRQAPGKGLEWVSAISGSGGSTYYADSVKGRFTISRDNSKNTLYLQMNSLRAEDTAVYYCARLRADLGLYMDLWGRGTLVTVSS
VL: QSVLTQPPSVSAAPGQKVTISCSGSSSNIGNHYVSWYQQLPGTAPKLLIYDNSERPSGIPDRFSGSKSGTSATLGITGLQTGDEADYYCGTWDSSLSALVFGGGTKLTVL
notes: VH of C0020187; Fab heavy-chain constant region; VL of C0020187; Fab light-chain constant region; also called parental antibody; parent Fab C0020187
B4: Fab C0021181 (Fab, V domains shown)
VH: EVQLLESGGGLVRPGGSLRLSCAASEFTFRYDYHVWVRQAPGKGLEWVSAISGSGGSTYYADSVKSRFTISRDNSKNTLYLQMNSLRAEDTAVYYCARLRADLGLYMDLWGRGTLVTVSS
VL: B3 VL with T19A, I20V, N31S, P56T, S94E, S95L, L96T, A98N, K106R
notes: VH of C0021181; VL of C0021181; Pool-maturation lead; 18 amino acid changes against C0020187
B5: Fab C0021158 (Fab, V domains shown)
VH: B1 VH with A55I
VL: B3 VL with P56T, S57A, I59V, S94E, S95L, L96T, A98N
notes: VH of C0021158; VL of C0021158; Pool-maturation lead; 18 amino acid changes against C0020187
B6: Fab C0021133 (Fab, V domains shown)
VH: B4 VH with R13Q, E26G, Y33H, S66G
VL: B1 VL with E3V, T9S, A10V, I20V
notes: VH of C0021133; Fab heavy-chain constant region; VL of C0021133; Fab light-chain constant region
B7: Fab C0021139 (Fab, V domains shown)
VH: B4 VH with R13Q, E26G, R30Q, H34Q, S66G
VL: B3 VL with P56T, S94E, S95L, L96T, A98N
notes: VH of C0021139; Fab heavy-chain constant region; VL of C0021139; Fab light-chain constant region
B8: Fab C0021128 (Fab, V domains shown)
VH: B1 VH with R30Q, A55I
VL: B3 VL with S53A, E54I, R55E, P56S, E84G, S95N
notes: VH of C0021128; Fab heavy-chain constant region; VL of C0021128; Fab light-chain constant region

Legend:
[1] = target: T1, recombinant human Arginase 2 (human, UniProt P78540); assay: SEC; Fab and ARG2 in solution; ratio of Fab to ARG2 upon complex formation; conditions: both partners purified
T1 construct: Arginase 2 (ARG2), human, recombinant; also called ARG2; trimeric ARG2; source: recombinant

[2] = target: the molecule itself; assay: crystal structure; ARG2-Fab C0020187 complex purified by SEC, crystallised; space group P 6(5) 2 2, 3.25 Å
[3] = target: T1, recombinant human Arginase 2; assay: cell-based or functional assay
[4] = target: T1, recombinant human Arginase 2; assay: crystal structure; ARG2-Fab C0020187 complex purified by SEC, crystallised; space group P 6(5) 2 2, 3.25 Å; conditions: both partners purified
[5] = target: T2, biotinylated recombinant human Arginase 2 (Homo sapiens, UniProt P78540, biotin (biotinylated; site not stated)); assay: BLI; OctetRED96, 25 °C, PBS with 0.01% BSA and 0.002% Tween 20; biotinylated human ARG2 captured on streptavidin sensors, Fabs titrated as analyte; 1:1 binding model (heterogeneous ligand model for C0020187); conditions: both partners purified
T2 construct: Arginase 2 (ARG2), human, recombinant; Construct, tags and the way of biotinylation are in the SI Appendix; also called ARG2; biotinylated human ARG2; source: recombinant

Binder | stoichiometry N [1] [Fab per ARG2 trimer] | binding result [5] | further results
B1 | 3 | – | –
B2 | – | – | stoichiometry N [2]: 3
B3 | 1 | – | inhibition of the enzymatic activity of recombinant human ARG2 (1 µg/mL, ~24 nM; urea measured colorimetrically), IC50 [3]: 900 nM; stoichiometry N [4]: 3 Fab per ARG2 trimer; KD of the initial high-affinity binding site (heterogeneous ligand model) [5]: ~10 nM
B4 | 3 | – | –
B5 | 3 | – | –
B6 | – | binds | –
B7 | – | binds | –
B8 | – | binds | –
